Experiments:
[1] = molecular target: T1, Pus7 delta ID-I (Saccharomyces cerevisiae, UniProt Q08647 1-74+216-676, internal_change); experiment: EMSA
T1 sequence: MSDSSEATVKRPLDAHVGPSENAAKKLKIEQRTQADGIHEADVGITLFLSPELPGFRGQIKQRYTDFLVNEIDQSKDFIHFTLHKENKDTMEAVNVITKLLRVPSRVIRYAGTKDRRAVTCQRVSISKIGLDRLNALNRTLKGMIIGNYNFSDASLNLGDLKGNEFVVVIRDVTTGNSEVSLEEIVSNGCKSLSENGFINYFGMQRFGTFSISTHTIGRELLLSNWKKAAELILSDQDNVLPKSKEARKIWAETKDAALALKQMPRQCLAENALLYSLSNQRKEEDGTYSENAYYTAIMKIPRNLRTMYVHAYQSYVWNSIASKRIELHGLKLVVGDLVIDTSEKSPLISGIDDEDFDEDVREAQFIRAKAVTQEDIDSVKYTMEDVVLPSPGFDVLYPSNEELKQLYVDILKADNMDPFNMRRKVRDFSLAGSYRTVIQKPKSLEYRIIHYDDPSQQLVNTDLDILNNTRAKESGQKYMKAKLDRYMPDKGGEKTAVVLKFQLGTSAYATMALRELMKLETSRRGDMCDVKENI

[2] = molecular target: T2, Pus7 WT (Saccharomyces cerevisiae, UniProt Q08647 1-676); experiment: EMSA
T2 sequence: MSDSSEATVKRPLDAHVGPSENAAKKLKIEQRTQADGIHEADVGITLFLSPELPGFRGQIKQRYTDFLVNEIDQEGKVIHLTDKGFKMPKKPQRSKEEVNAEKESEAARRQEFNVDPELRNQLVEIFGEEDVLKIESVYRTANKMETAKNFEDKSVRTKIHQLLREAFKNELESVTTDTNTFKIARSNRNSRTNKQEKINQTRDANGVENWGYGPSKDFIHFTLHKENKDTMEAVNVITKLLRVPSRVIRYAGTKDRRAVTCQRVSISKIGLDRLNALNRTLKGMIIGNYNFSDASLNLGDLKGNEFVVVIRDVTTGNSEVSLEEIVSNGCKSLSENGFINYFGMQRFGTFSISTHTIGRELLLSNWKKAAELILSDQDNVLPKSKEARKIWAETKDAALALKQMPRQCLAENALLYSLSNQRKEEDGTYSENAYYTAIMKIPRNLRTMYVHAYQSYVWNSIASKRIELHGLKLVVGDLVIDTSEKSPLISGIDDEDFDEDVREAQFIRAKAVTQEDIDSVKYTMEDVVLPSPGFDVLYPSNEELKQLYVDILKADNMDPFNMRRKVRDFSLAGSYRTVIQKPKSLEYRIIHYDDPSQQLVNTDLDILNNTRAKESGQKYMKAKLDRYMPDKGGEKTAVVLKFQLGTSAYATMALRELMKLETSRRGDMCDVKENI

B1: Psi-modified CDC8 (ssRNA)
RNA: GUCAAUCACGAUUGUAGACGUUACUAAUAAGGGCAUUCAGGAAGUUGAAGCGCUUAUUUGG
modifications: pseudouridine at the UGUAG target U (U15)
With B1 the binding signal [1] was 8 fold weaker than D256A/delta ID-I on unmodified CDC8 and the Kd [2] was 75 ± 15 nM.

— paper PMC8794802
